Biological target: the molecule itself
Assay: AUC

B1: RepB initiator protein of plasmid pMV158 (natural protein, UniProt P13921 1-210, looked up)
chain: MAKEKARYFTFLLYPESIPSDWELKLETLGVPMAISPLHDKDKSSIKGQKYKKAHYHVLYIAKNPVTADSVRKKIKLLLGEKSLAMVQVVLNVENMYLYLTHESKDAIAKKKHVYDKADIKLINNFDIDRYVTLDVEEKTELFNVVVSLIRAYTLQNIFDLYDFIDENGETYGLTINLVNEVIAGKTGFMKLLFDGAYQRSKRGTKNEER
For B1, the “stoichiometry N” value was 6.

Reference: article PMC1851628 (Nucleic Acids Research, 2007)
